*1 amine or outer side, *2 acyl side, *3 side chain or, on linkers, in order; H or OH if unused. Primed or numbered codes have the meaning given here. [ ]: non-standard residue; d: D form. The star is where a group is joined. C20 diacid = O=C(O)CCCCCCCCCCCCCCCCCCC(=O)*; C18 diacid = O=C(O)CCCCCCCCCCCCCCCCC(=O)*; γGlu = O=C(O)[C@H](CCC(=O)[*:2])N[*:1]; βAsp = O=C(O)[C@H](CC(=O)[*:2])N[*:1]; Trx′ = not defined here; AEEA = NCCOCCOCC(=O)O

The chains are these.
B1: calcitonin derivative M27 (peptide)
peptide: {C20 diacid-γGlu}-ISQLSTIVLGRLSQELHRLQDYPRTDVGSGSP-NH2
SMILES: CC[C@H](C)[C@H](NC(=O)CC[C@H](NC(=O)CCCCCCCCCCCCCCCCCCC(=O)O)C(=O)O)C(=O)N[C@@H](CO)C(=O)N[C@@H](CCC(N)=O)C(=O)N[C@@H](CC(C)C)C(=O)N[C@@H](CO)C(=O)N[C@H](C(=O)N[C@H](C(=O)N[C@H](C(=O)N[C@@H](CC(C)C)C(=O)NCC(=O)N[C@@H](CCCNC(=N)N)C(=O)N[C@@H](CC(C)C)C(=O)N[C@@H](CO)C(=O)N[C@@H](CCC(N)=O)C(=O)N[C@@H](CCC(=O)O)C(=O)N[C@@H](CC(C)C)C(=O)N[C@@H](Cc1c[nH]cn1)C(=O)N[C@@H](CCCNC(=N)N)C(=O)N[C@@H](CC(C)C)C(=O)N[C@@H](CCC(N)=O)C(=O)N[C@@H](CC(=O)O)C(=O)N[C@@H](Cc1ccc(O)cc1)C(=O)N1CCC[C@H]1C(=O)N[C@@H](CCCNC(=N)N)C(=O)N[C@H](C(=O)N[C@@H](CC(=O)O)C(=O)N[C@H](C(=O)NCC(=O)N[C@@H](CO)C(=O)NCC(=O)N[C@@H](CO)C(=O)N1CCC[C@H]1C(N)=O)C(C)C)[C@@H](C)O)C(C)C)[C@@H](C)CC)[C@@H](C)O
B2: calcitonin derivative M12 (peptide)
peptide: {C20 diacid-γGlu}-ASQLSTAVLGRLSTELHRLQDYPRTDVGSGSP-NH2
SMILES: CC(C)C[C@H](NC(=O)[C@H](CCCNC(=N)N)NC(=O)CNC(=O)[C@H](CC(C)C)NC(=O)[C@@H](NC(=O)[C@H](C)NC(=O)[C@@H](NC(=O)[C@H](CO)NC(=O)[C@H](CC(C)C)NC(=O)[C@H](CCC(N)=O)NC(=O)[C@H](CO)NC(=O)[C@H](C)NC(=O)CC[C@H](NC(=O)CCCCCCCCCCCCCCCCCCC(=O)O)C(=O)O)[C@@H](C)O)C(C)C)C(=O)N[C@@H](CO)C(=O)N[C@H](C(=O)N[C@@H](CCC(=O)O)C(=O)N[C@@H](CC(C)C)C(=O)N[C@@H](Cc1c[nH]cn1)C(=O)N[C@@H](CCCNC(=N)N)C(=O)N[C@@H](CC(C)C)C(=O)N[C@@H](CCC(N)=O)C(=O)N[C@@H](CC(=O)O)C(=O)N[C@@H](Cc1ccc(O)cc1)C(=O)N1CCC[C@H]1C(=O)N[C@@H](CCCNC(=N)N)C(=O)N[C@H](C(=O)N[C@@H](CC(=O)O)C(=O)N[C@H](C(=O)NCC(=O)N[C@@H](CO)C(=O)NCC(=O)N[C@@H](CO)C(=O)N1CCC[C@H]1C(N)=O)C(C)C)[C@@H](C)O)[C@@H](C)O
B3: calcitonin derivative M60 (peptide)
peptide: {C20 diacid}-D[AEEA][AEEA]ASQLSTAVLGRLSEELHRLQDYPRTDVGSGSP-NH2
SMILES: CC(C)C[C@H](NC(=O)[C@H](CCCNC(=N)N)NC(=O)CNC(=O)[C@H](CC(C)C)NC(=O)[C@@H](NC(=O)[C@H](C)NC(=O)[C@@H](NC(=O)[C@H](CO)NC(=O)[C@H](CC(C)C)NC(=O)[C@H](CCC(N)=O)NC(=O)[C@H](CO)NC(=O)[C@H](C)NC(=O)COCCOCCNC(=O)COCCOCCNC(=O)[C@H](CC(=O)O)NC(=O)CCCCCCCCCCCCCCCCCCC(=O)O)[C@@H](C)O)C(C)C)C(=O)N[C@@H](CO)C(=O)N[C@@H](CCC(=O)O)C(=O)N[C@@H](CCC(=O)O)C(=O)N[C@@H](CC(C)C)C(=O)N[C@@H](Cc1c[nH]cn1)C(=O)N[C@@H](CCCNC(=N)N)C(=O)N[C@@H](CC(C)C)C(=O)N[C@@H](CCC(N)=O)C(=O)N[C@@H](CC(=O)O)C(=O)N[C@@H](Cc1ccc(O)cc1)C(=O)N1CCC[C@H]1C(=O)N[C@@H](CCCNC(=N)N)C(=O)N[C@H](C(=O)N[C@@H](CC(=O)O)C(=O)N[C@H](C(=O)NCC(=O)N[C@@H](CO)C(=O)NCC(=O)N[C@@H](CO)C(=O)N1CCC[C@H]1C(N)=O)C(C)C)[C@@H](C)O
B4: calcitonin derivative M28 (peptide)
peptide: {C20 diacid-γGlu}-SSQLSTSVLGRLSQELHRLQDYPRTDVGSGSP-NH2
SMILES: CC(C)C[C@H](NC(=O)[C@H](CCCNC(=N)N)NC(=O)CNC(=O)[C@H](CC(C)C)NC(=O)[C@@H](NC(=O)[C@H](CO)NC(=O)[C@@H](NC(=O)[C@H](CO)NC(=O)[C@H](CC(C)C)NC(=O)[C@H](CCC(N)=O)NC(=O)[C@H](CO)NC(=O)[C@H](CO)NC(=O)CC[C@H](NC(=O)CCCCCCCCCCCCCCCCCCC(=O)O)C(=O)O)[C@@H](C)O)C(C)C)C(=O)N[C@@H](CO)C(=O)N[C@@H](CCC(N)=O)C(=O)N[C@@H](CCC(=O)O)C(=O)N[C@@H](CC(C)C)C(=O)N[C@@H](Cc1c[nH]cn1)C(=O)N[C@@H](CCCNC(=N)N)C(=O)N[C@@H](CC(C)C)C(=O)N[C@@H](CCC(N)=O)C(=O)N[C@@H](CC(=O)O)C(=O)N[C@@H](Cc1ccc(O)cc1)C(=O)N1CCC[C@H]1C(=O)N[C@@H](CCCNC(=N)N)C(=O)N[C@H](C(=O)N[C@@H](CC(=O)O)C(=O)N[C@H](C(=O)NCC(=O)N[C@@H](CO)C(=O)NCC(=O)N[C@@H](CO)C(=O)N1CCC[C@H]1C(N)=O)C(C)C)[C@@H](C)O
B5: calcitonin derivative M43 (peptide)
peptide: {C20 diacid-βAsp}-ASQLSTAVLGRLSDELHRLQDYPRTDVGSGSP-NH2
SMILES: CC(C)C[C@H](NC(=O)[C@H](CCCNC(=N)N)NC(=O)CNC(=O)[C@H](CC(C)C)NC(=O)[C@@H](NC(=O)[C@H](C)NC(=O)[C@@H](NC(=O)[C@H](CO)NC(=O)[C@H](CC(C)C)NC(=O)[C@H](CCC(N)=O)NC(=O)[C@H](CO)NC(=O)[C@H](C)NC(=O)C[C@H](NC(=O)CCCCCCCCCCCCCCCCCCC(=O)O)C(=O)O)[C@@H](C)O)C(C)C)C(=O)N[C@@H](CO)C(=O)N[C@@H](CC(=O)O)C(=O)N[C@@H](CCC(=O)O)C(=O)N[C@@H](CC(C)C)C(=O)N[C@@H](Cc1c[nH]cn1)C(=O)N[C@@H](CCCNC(=N)N)C(=O)N[C@@H](CC(C)C)C(=O)N[C@@H](CCC(N)=O)C(=O)N[C@@H](CC(=O)O)C(=O)N[C@@H](Cc1ccc(O)cc1)C(=O)N1CCC[C@H]1C(=O)N[C@@H](CCCNC(=N)N)C(=O)N[C@H](C(=O)N[C@@H](CC(=O)O)C(=O)N[C@H](C(=O)NCC(=O)N[C@@H](CO)C(=O)NCC(=O)N[C@@H](CO)C(=O)N1CCC[C@H]1C(N)=O)C(C)C)[C@@H](C)O
B6: calcitonin derivative M44 (peptide)
peptide: {C18 diacid}-DASQLSTAVLGRLSDELHRLQDYPRTDVGSGSP-NH2
SMILES: CC(C)C[C@H](NC(=O)[C@H](CCCNC(=N)N)NC(=O)CNC(=O)[C@H](CC(C)C)NC(=O)[C@@H](NC(=O)[C@H](C)NC(=O)[C@@H](NC(=O)[C@H](CO)NC(=O)[C@H](CC(C)C)NC(=O)[C@H](CCC(N)=O)NC(=O)[C@H](CO)NC(=O)[C@H](C)NC(=O)[C@H](CC(=O)O)NC(=O)CCCCCCCCCCCCCCCCC(=O)O)[C@@H](C)O)C(C)C)C(=O)N[C@@H](CO)C(=O)N[C@@H](CC(=O)O)C(=O)N[C@@H](CCC(=O)O)C(=O)N[C@@H](CC(C)C)C(=O)N[C@@H](Cc1c[nH]cn1)C(=O)N[C@@H](CCCNC(=N)N)C(=O)N[C@@H](CC(C)C)C(=O)N[C@@H](CCC(N)=O)C(=O)N[C@@H](CC(=O)O)C(=O)N[C@@H](Cc1ccc(O)cc1)C(=O)N1CCC[C@H]1C(=O)N[C@@H](CCCNC(=N)N)C(=O)N[C@H](C(=O)N[C@@H](CC(=O)O)C(=O)N[C@H](C(=O)NCC(=O)N[C@@H](CO)C(=O)NCC(=O)N[C@@H](CO)C(=O)N1CCC[C@H]1C(N)=O)C(C)C)[C@@H](C)O
B7: calcitonin derivative M13 (peptide)
peptide: {C20 diacid-γGlu}-ASQLSTAVLGRLSQELHRLEDYPRTDVGSGSP-NH2
SMILES: CC(C)C[C@H](NC(=O)[C@H](CCCNC(=N)N)NC(=O)CNC(=O)[C@H](CC(C)C)NC(=O)[C@@H](NC(=O)[C@H](C)NC(=O)[C@@H](NC(=O)[C@H](CO)NC(=O)[C@H](CC(C)C)NC(=O)[C@H](CCC(N)=O)NC(=O)[C@H](CO)NC(=O)[C@H](C)NC(=O)CC[C@H](NC(=O)CCCCCCCCCCCCCCCCCCC(=O)O)C(=O)O)[C@@H](C)O)C(C)C)C(=O)N[C@@H](CO)C(=O)N[C@@H](CCC(N)=O)C(=O)N[C@@H](CCC(=O)O)C(=O)N[C@@H](CC(C)C)C(=O)N[C@@H](Cc1c[nH]cn1)C(=O)N[C@@H](CCCNC(=N)N)C(=O)N[C@@H](CC(C)C)C(=O)N[C@@H](CCC(=O)O)C(=O)N[C@@H](CC(=O)O)C(=O)N[C@@H](Cc1ccc(O)cc1)C(=O)N1CCC[C@H]1C(=O)N[C@@H](CCCNC(=N)N)C(=O)N[C@H](C(=O)N[C@@H](CC(=O)O)C(=O)N[C@H](C(=O)NCC(=O)N[C@@H](CO)C(=O)NCC(=O)N[C@@H](CO)C(=O)N1CCC[C@H]1C(N)=O)C(C)C)[C@@H](C)O

The test addresses T1, human amylin receptor (AMY3) on CHO-K1/Gal5/AMY3 cells (human, UniProt P30988 25-474; O60896 24-148).
T1 sequence (looked up) 1: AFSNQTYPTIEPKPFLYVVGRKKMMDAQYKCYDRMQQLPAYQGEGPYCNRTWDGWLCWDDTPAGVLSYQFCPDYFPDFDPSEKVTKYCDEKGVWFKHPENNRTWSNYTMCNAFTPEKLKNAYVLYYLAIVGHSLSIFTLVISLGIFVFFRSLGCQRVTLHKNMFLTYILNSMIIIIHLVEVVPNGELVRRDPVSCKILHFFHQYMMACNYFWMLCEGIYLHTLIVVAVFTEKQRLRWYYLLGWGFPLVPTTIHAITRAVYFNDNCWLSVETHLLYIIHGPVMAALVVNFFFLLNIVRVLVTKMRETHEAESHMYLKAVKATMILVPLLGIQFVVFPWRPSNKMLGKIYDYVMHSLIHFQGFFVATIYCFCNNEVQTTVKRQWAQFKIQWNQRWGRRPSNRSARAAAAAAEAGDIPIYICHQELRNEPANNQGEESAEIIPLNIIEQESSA
T1 sequence (looked up) 2: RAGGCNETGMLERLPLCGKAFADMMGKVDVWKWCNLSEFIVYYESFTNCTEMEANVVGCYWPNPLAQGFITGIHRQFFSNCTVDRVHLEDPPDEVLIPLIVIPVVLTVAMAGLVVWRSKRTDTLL
The test can be described thus: cell-based or functional assay.
For {C20 diacid-Trx′-AEEA-AEEA}-ASQLSTAVLGRLSEELHRLQDYPRTDVGSGSP-NH2 (reading uncertain) [calcitonin derivative M61], the “EC50/nM, CRE-luciferase in amylin receptor/CRE-luc CHO cells” value was found to be 0.015 nM.

In the case of {C18 diacid-Trx′}-ASQLSTAVLGRLSDELHRLQDYPRTDVGSGSP-NH2 (reading uncertain) [calcitonin derivative M46], the “EC50/nM, CRE-luciferase in amylin receptor/CRE-luc CHO cells” value was found to be 0.119 nM.

Take B1: the “EC50/nM, CRE-luciferase in amylin receptor/CRE-luc CHO cells” value was determined as 0.016 nM.

As to B2, the “EC50/nM, CRE-luciferase in amylin receptor/CRE-luc CHO cells” value worked out at 0.017 nM.

As for B3, the “EC50/nM, CRE-luciferase in amylin receptor/CRE-luc CHO cells” value is 0.016 nM.

As to B4, the “EC50/nM, CRE-luciferase in amylin receptor/CRE-luc CHO cells” value amounted to 0.017 nM.

B5: the “EC50/nM, CRE-luciferase in amylin receptor/CRE-luc CHO cells” value came to 0.017 nM.

B6: the “EC50/nM, CRE-luciferase in amylin receptor/CRE-luc CHO cells” value is 0.016 nM.

As for B7, the “EC50/nM, CRE-luciferase in amylin receptor/CRE-luc CHO cells” value was 0.017 nM.

(Values after patent EP4692114A1, “CALCITONIN ANALOGUE, AND DERIVATIVE THEREOF AND USE THEREOF” (Hangzhou Sciwind Biosciences Co., Ltd., priority 2023, dated 2024).)
